Patent US20060165680A1

Experiments:
[1] = target: TAG-72 positive bovine submaxillary mucin (BSM) (bovine); experiment: SPR (BIAcore X), control Fab over immobilised BSM, BSA reference
[2] = target: TAG-72 expressed on the cell surface of Jurkat cells (human); experiment: flow cytometry on Jurkat cells expressing cell-surface TAG-72, 1 ug antibody, FITC-conjugated mouse anti-human antibody
[3] = target: TAG-72 expressed on the cell surface of Jurkat cells (human); experiment: flow cytometry on Jurkat cells expressing cell-surface TAG-72, antibody amount not given, FITC-conjugated mouse anti-human antibody

Substance	% Gated, marker M1 [2] [%]	% Gated, marker M2 [2] [%]	% Total, marker M1 [2] [%]	% Total, marker M2 [2] [%]	Mean, marker All [2]	Mean, marker M1 [2]	Mean, marker M2 [2]	koff [1] [s⁻¹]	also measured
Fab derived from human IgG	–	–	–	–	–	–	–	0.0138	–
Fab derived from murine CC49	–	–	–	–	–	–	–	0.000104	–
human immunoglobulin G (HuIgG) control (antibody)	–	–	–	–	–	–	–	–	% Gated, marker M1 [3]: 99.7%; % Gated, marker M2 [3]: 0.31%; % Total, marker M1 [3]: 92.1%; % Total, marker M2 [3]: 0.29%; Mean, marker All [3]: 3.54; Mean, marker M1 [3]: 3.49; Mean, marker M2 [3]: 20.5

Second part, led by results:

% Gated, marker M1 [2] [%]	% Gated, marker M2 [2] [%]	% Total, marker M1 [2] [%]	% Total, marker M2 [2] [%]	Mean, marker All [2]	Mean, marker M1 [2]	Mean, marker M2 [2]	Substance	koff [1] [s⁻¹]	also measured
70.8	29.4	60.6	25.2	18	4.36	50.9	HuCC49 (antibody)	–	–
27.2	73	12.2	32.7	41.6	5.92	54.8	cCC49 (antibody)	–	–
